Consider one substance from patent publication US20040203101A1.

The assay addresses rat nerve growth factor gamma (rat). Put plainly: kinetic constants for the interaction of BAIT with proteinases; method not described.

Sequence of human BAIT (Brain-Associated Inhibitor of Tissue-Type Plasminogen Activator), mature protein expressed in baculovirus/Sf9 cells and purified (Q99574 19-410): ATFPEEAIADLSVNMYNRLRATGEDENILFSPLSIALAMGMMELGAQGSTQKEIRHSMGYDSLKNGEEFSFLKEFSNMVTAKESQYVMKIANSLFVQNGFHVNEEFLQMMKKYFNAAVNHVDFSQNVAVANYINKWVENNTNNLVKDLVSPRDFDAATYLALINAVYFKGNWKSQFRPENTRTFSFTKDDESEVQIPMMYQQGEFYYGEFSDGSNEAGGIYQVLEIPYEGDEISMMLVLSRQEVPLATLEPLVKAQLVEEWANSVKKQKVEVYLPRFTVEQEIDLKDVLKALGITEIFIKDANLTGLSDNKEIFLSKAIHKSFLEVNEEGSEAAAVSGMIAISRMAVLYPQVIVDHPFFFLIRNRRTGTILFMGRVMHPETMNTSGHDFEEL

For the substance “human BAIT (Brain-Associated Inhibitor of Tissue-Type Plasminogen Activator), mature protein expressed in baculovirus/Sf9 cells and purified (from UniProt Q99574 19-410)”, the K was 1.3 µM, the k is 0.0086 s⁻¹ and the ki was 6500 M⁻¹ s⁻¹.
